Reference: patent publication US12590158 (XIYUAN ANJIAN MEDICINE SHANGHAI, dated 2026)
Changes are numbered by the printed parent chain. Each block holds one binder with its values, some of them ahead of it.

Columns and labels:
[1] = molecular target: full-length human TrkA expressed on cells (human) (UniProt P04629); experiment: cell-based or functional assay
[2] = molecular target: T1, TrkA extracellular region (33-417) protein comprising human Fc (ACROBiosystems TRA-H5259) (human, UniProt P04629 33-417); experiment: competition ELISA, coated TrkA (33-417)-hFc, antibody titrated, competitor biotin-labeled human NGF
T1 construct: range 33-417; Bought fusion protein; also called human TrkA (33-417); human TrkA extracellular region
T1 sequence (P04629 33-417 limits assumed): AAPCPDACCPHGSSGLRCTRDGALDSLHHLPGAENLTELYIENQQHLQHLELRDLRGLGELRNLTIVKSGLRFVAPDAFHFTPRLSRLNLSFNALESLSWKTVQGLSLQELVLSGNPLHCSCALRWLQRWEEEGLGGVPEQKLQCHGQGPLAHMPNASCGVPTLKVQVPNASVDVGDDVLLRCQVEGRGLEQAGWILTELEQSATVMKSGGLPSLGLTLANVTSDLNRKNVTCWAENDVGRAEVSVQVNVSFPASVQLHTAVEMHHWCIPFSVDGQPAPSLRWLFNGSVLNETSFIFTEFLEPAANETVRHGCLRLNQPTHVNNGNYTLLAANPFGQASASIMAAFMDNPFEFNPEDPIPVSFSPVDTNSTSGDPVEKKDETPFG
Protocol: Each well of a 96-well microtiter plate was coated with 50 ng of TrkA extracellular region (33-417) protein fused to human Fc, washed three times and blocked with 3% BSA for 1 hour. […] Each well was added with 100 μl and incubated at room temperature for 30 minutes. […] Streptavidin-labeled horseradish peroxidase (Streptavidin-HRP, Biolegend, 405210) was added and incubated for 0.5 hours. After washing three times, TMB was added to the plate, and the absorbance at 450 nm was read by a microplate reader after the color development was terminated.

[3] = molecular target: T2, full-length human TrkA expressed on cells (human, UniProt P04629 33-796); experiment: cell-based or functional assay
T2 sequence (P04629 33-796): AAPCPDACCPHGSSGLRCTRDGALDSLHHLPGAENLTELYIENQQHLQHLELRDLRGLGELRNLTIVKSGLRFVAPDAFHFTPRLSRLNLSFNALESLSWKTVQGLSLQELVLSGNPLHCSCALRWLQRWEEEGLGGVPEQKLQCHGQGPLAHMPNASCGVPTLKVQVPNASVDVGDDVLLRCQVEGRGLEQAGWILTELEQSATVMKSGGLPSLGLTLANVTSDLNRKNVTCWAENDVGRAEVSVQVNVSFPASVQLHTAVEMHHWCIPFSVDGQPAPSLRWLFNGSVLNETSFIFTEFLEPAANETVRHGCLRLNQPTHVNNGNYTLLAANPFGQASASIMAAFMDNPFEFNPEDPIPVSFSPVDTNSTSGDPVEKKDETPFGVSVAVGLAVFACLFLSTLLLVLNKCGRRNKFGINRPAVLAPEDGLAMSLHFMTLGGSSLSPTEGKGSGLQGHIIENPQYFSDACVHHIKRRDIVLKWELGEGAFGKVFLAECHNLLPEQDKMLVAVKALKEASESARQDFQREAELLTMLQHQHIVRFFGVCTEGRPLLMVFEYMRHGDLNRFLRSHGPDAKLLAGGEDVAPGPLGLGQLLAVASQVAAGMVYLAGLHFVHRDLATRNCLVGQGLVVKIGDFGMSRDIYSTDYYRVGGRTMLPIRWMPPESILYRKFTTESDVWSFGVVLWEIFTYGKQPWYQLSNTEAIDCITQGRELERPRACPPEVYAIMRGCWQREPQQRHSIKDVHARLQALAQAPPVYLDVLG

[4] = molecular target: T2, full-length human TrkA expressed on …; experiment: cell-based or functional assay; remark: listed apart in the source
[5] = molecular target: T3, human TrkB expressed on CHO cells (TrkB/CHO, ThermoFisher K1491) (human, UniProt Q16620 32-822); experiment: flow cytometry on TrkB/CHO cells
T3 construct: whole, on cells
T3 sequence (Q16620 32-822): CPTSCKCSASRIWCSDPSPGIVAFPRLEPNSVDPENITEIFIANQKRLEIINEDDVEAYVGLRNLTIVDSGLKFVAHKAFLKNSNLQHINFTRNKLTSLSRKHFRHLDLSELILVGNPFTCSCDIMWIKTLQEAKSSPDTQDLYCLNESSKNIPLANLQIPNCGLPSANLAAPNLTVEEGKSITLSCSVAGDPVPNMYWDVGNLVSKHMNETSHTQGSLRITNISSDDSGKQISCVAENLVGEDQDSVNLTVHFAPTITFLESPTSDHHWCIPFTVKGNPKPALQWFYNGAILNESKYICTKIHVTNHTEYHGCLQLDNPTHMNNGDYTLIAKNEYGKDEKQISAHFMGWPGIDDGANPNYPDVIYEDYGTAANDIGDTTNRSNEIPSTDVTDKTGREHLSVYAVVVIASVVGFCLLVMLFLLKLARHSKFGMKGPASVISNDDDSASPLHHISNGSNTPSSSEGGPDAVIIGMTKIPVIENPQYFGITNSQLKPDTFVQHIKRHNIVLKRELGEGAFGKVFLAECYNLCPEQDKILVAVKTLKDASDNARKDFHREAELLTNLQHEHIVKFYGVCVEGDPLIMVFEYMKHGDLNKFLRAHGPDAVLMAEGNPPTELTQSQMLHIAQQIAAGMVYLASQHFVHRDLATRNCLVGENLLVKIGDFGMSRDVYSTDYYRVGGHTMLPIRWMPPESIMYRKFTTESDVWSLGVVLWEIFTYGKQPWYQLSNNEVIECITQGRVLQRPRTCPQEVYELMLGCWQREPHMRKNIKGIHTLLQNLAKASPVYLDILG
Protocol: (§1) CHO-K1 was used as a negative control. The binding of the humanized antibodies to the four cell lines was detected by flow cytometry.
(§2) The cells were cultured according to the manufacturer's instruction. The cells were harvested in the logarithmic growth phase, re-suspended in flow buffer (PBS+2% FBS, pH 7.4), and added into 96-well plate, 10^5 cells per well (50 µl). 50 µl of 100 µg/mL humanized anti-TrkA antibody was added, incubated at room temperature for 60 min, and centrifuged at 1200 rpm. The supernatant was discarded and the cells were washed 3 times. FITC-labeled goat anti-human Fc antibody (Abeam, ab97224) was diluted to 5 µg/mL with flow buffer and used to re-suspend the cells, incubated at room temperature for 30 min in the dark, centrifuged, and the supernatant was discarded. After washing 3 times, the cells were re-suspended with 7AAD solution (Biolegend, 420403), incubated for 10 min at room temperature, and the binding of the antibody was detected with a flow cytometer (BioRad, ZE5).

[6] = molecular target: T4, human TrkC expressed on CHO cells (TrkC/CHO, ThermoFisher K1515) (human, UniProt Q16288 32-839); experiment: flow cytometry on TrkC/CHO cells
T4 construct: whole, on cells
T4 sequence (Q16288 32-839): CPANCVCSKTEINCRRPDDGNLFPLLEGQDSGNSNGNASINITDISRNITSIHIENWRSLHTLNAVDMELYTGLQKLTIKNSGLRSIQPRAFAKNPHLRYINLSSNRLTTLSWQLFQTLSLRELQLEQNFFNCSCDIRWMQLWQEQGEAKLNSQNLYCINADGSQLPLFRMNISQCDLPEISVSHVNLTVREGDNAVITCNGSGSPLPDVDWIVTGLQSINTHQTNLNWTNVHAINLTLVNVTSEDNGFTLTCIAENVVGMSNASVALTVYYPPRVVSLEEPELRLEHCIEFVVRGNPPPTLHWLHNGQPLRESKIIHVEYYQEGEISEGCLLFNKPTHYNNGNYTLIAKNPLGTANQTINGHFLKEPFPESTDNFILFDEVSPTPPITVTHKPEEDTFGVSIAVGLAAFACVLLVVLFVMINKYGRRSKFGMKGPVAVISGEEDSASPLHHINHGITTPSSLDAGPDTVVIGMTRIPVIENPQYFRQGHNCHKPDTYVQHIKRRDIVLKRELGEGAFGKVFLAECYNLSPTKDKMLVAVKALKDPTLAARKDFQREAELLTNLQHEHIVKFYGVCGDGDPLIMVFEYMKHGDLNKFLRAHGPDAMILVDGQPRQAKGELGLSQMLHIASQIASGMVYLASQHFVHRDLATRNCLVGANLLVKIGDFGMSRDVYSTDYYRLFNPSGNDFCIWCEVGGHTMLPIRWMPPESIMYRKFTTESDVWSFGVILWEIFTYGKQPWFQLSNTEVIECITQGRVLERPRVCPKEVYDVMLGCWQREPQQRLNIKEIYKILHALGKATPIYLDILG
Protocol: as §1, §2

[7] = molecular target: T5, human TrkA extracellular region (33-417) protein containing mouse Fc (human, UniProt P04629 33-417); experiment: ELISA, coated human TrkA (33-417)-mouse Fc, anti-human IgG-HRP
T5 construct: range 33-417
T5 sequence (P04629 33-417 limits assumed): as the sequence (P04629 33-417 limits assumed) above
Protocol: Each well of a 96-well microtiter plate was coated with 50 ng of human TrkA, washed and blocked, then added with serially diluted humanized antibodies, and incubated for 1 hour at room temperature. After washing three times, horseradish peroxidase-conjugated goat anti-human IgG antibody (ThermoFisher, A18817) was added and reacted at room temperature for 1 hour. After washing three time, tetramethylbenzidine (TMB, Biolegend) was added for color development. 1M HCl was used to terminate the color development, and the absorbance values were read at 450 nm with a microplate reader.

Chain of full-length human TrkA expressed on cells (human) (P04629 33-796): as the sequence (P04629 33-796) above

IC50 of inhibiting NGF-induced TF-1 cell proliferation [1]: > 200 nM
IC50 of inhibiting NGF-induced TrkA/Ba/F3 cell proliferation [1]: > 200 nM
inhibition rate for TrkA/Ba/F3 cell proliferation at 40 µg/mL (266.67 nM) [1]: < 50%
inhibition rate on NGF-induced TF-1 cell proliferation at 40 µg/mL (266.67 nM) [1]: < 40%
IC50 [2]: > 100 nM
B1: control antibody BXhVH5VL1 (antibody, V domains shown)
VH: EVKLLESGGGLVQPGGSLRLSCAASGFTFSTYTMSWVRQTPGKRLEWVAYISKGGGSTYYPDTVKGRFTISRDNSKNTLYLQMNSLRAEDTAVYYCARGAMYGNDFFYPMDYWGQGTTVTVSS
VL: EIVLTQSPATLSLSPGERATLSCSASSSVSYMHWYQQKPGQAPRLLIYTTSNLASGIPARFSGSGSGTDFTLTISSLEPEDFAVYYCHQWSSYPWTFGQGTKLEIK

IC50 of inhibiting NGF-induced TF-1 cell proliferation [3]: 1.43 nM
IC50 of inhibiting NGF-induced TrkA/Ba/F3 cell proliferation [4]: 2.91 nM
binding result [5]: no binding (tested: 50 µl of 100 µg/mL)
binding result [6]: no binding (tested: 50 µl of 100 µg/mL)
EC50 [7]: 0.056 nM
B2: humanized anti-TrkA antibody 42F5-03 (antibody, V domains shown)
VH: QVQLVQSGAEVKKPGASVKVSCKSSGYTFTNYWMHWVRQAPGQGLEWIGEIYPNNGRVNYNEKFKNRATLTVDISISTAYMELSRLRSDDTAVYYCARSRYDPMEDWGQGTTVTVSS
VL: DVQLTQSPSSLSASVGDRVTITCSASSSVGYMHWYQQKPGKAPKRWIYDTSKLASGVPSRFSGSGSGTDYTLTISSLQPEDFATYFCQQWSSIPLTFGQGTRLEIK
notes: VH grafted to human IgG4 heavy chain constant region, VL to human Kappa light chain constant region

IC50 of inhibiting NGF-induced TF-1 cell proliferation [3]: 1.69 nM
IC50 of inhibiting NGF-induced TrkA/Ba/F3 cell proliferation [4]: 3.69 nM
binding result [5]: no binding (tested: 50 µl of 100 µg/mL)
binding result [6]: no binding (tested: 50 µl of 100 µg/mL)
EC50 [7]: 0.07 nM
B3: humanized anti-TrkA antibody 42F5-04 (antibody, V domains shown)
VH: B2 VH with A16S, I76T, R85S, D89E
VL: B2 VL
notes: as for B2
